This note sets out measurements from paper PMC9270970.

The target in this experiment is SynNotch receptor (CD8a signal-Myc-LaG17-Notch1 minimal transmembrane core-tTA) (mouse) (UniProt Q01705).
Sequence of UniProt Q01705 (Q01705 whole entry): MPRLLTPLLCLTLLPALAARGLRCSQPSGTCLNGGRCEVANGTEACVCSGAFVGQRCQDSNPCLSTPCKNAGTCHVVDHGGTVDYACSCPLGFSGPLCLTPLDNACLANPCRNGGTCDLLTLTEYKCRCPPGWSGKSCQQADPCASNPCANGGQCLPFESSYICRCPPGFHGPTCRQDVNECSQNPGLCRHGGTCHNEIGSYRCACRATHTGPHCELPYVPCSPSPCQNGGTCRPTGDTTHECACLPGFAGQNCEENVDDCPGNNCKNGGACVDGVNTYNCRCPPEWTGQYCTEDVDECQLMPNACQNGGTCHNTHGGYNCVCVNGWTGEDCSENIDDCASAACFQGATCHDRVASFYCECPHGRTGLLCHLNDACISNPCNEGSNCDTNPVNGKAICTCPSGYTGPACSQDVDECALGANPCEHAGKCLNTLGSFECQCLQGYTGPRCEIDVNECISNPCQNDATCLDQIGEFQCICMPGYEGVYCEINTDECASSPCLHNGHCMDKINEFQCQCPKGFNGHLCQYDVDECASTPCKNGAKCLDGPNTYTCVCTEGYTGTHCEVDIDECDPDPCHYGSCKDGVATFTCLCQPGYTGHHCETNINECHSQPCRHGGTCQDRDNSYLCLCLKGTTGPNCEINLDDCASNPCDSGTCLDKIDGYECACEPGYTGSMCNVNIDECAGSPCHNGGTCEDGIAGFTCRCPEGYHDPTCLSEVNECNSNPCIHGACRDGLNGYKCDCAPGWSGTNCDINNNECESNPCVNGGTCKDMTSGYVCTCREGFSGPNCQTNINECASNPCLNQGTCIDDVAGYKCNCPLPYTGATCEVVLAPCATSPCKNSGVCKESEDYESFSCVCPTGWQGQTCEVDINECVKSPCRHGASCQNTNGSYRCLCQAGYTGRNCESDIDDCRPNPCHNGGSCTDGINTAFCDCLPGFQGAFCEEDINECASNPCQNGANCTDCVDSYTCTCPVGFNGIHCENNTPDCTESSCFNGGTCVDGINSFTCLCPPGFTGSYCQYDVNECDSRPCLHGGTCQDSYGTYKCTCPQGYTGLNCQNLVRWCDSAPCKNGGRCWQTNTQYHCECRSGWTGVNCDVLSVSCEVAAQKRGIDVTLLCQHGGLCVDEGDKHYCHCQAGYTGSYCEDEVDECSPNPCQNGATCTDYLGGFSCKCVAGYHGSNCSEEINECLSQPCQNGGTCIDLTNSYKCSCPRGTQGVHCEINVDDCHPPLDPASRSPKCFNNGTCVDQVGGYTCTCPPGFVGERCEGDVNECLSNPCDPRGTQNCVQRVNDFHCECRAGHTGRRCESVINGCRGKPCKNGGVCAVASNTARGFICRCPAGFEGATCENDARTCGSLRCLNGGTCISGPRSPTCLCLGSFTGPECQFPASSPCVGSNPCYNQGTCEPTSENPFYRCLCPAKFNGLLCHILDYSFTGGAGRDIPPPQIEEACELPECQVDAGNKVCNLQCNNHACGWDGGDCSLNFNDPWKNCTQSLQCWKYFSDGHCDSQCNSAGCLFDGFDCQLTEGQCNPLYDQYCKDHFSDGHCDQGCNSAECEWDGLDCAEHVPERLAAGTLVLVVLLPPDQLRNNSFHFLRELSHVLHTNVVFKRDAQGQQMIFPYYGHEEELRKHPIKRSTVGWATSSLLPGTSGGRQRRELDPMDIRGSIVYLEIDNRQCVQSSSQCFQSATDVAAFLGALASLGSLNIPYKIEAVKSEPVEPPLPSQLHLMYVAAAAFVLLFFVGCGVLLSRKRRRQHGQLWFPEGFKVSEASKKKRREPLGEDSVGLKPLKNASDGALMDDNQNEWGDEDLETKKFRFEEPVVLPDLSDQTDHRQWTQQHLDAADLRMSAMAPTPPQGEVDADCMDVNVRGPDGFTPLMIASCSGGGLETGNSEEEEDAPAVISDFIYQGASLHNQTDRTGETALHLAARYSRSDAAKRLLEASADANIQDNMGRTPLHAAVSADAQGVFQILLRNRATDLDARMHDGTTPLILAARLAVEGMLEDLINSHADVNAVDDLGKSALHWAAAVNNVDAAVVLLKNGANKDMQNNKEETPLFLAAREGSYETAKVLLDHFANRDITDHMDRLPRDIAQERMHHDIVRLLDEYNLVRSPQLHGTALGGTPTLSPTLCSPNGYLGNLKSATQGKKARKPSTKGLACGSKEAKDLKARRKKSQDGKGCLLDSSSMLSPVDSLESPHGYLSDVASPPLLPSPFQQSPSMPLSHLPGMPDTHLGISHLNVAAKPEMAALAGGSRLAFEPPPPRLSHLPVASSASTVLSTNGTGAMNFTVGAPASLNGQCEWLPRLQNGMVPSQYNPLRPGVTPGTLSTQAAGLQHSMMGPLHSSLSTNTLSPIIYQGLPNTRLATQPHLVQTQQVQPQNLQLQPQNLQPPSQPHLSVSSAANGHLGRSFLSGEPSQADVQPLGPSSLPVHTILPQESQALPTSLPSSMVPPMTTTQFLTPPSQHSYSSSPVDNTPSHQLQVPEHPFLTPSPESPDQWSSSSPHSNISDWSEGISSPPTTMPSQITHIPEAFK

Turning to “membrane-tethered extracellular EGFP (IgGK signal-EGFP-PDGFRB TMD) (ligand)”, the percentage of STC receiver cells that induce mCherry after 24 h of co-culture with different proportions of sender cells (20% to 90% sender cells) was more than 90%.
